Measured values reported in the DeepSol protein solubility set.

Test: soluble on expression in E. coli; label from the status in PepcDB or PDB records

For “MLKRPIHLSHDFLAEVVDKSSVVVDATMGNGNDTAFLAQLAKKVYAFDVQEQAIRKTSERLAQLGLSNAELILAGHEAVDQYVTEPVRAAIFNLGYLPSADKSIITLPNTTLQALSKLLTLLMVGGRIAIMVYYGHDGGSLEKDALLDFVKQLDQRKVSAMLYQPLNQVNTPPFLIMLEKLADF”, which “soluble on expression in E. coli” value is on record?
Its value is “not soluble”.

For “MLKVEKFKKLKRFEVYYCLKNSFLEEVDIEMKYSCSITTIMSNGSASLLMNWEELTPGHCFTSYTTNPIAGDYGLNASAIDGHTEELVATHPAGTLENATQ”, which “soluble on expression in E. coli” value is on record?
Its value is “not soluble”.

For “MLKYQQIATEIETYIEEHQLQQGDKLPVLETLMAQFEVSKSTITKSLELLEQKGAIFQVRGSGIFVRKHKRKGYISLLSNQGFKKDLEDFNVTSKVIELDVRKPTPEAAENLNIGMDEDIYYVKRVRYINGQTLCYEESYYTKSIVTYLNNEIVSHSIFHYIREGLGLKIGFSDLFLHVGQLNEEEAEYLGLEAGLPKLYIESIFHLTNGQPFDYSKISYNYEQSQFVVQANSFLL”, which “soluble on expression in E. coli” value is on record?
Its value is “soluble”.

Which “soluble on expression in E. coli” value does the source give for “MLLAYQSVIASITYLNPNIRFQLSRRCPSLKSAEKSAPLFINKLKLCTNSVVVNDISYEVDVYKTSEAVLLTYNTDLDVFGSIDFDLEIEEQNEILLDHRTYMAERMRLEREVLGLMTHSRNPNADLSRLMEINRLNKIRIQAREDRREVPNTPPEPPLVQVIEFAVMETDNYGDCLENEQLTYDRKLHDAVKYIMEKLFCGRKTPVHLSTLSINSFGILRIPLNMRFKIRHLKLVSGHANEIASKIRPIIEDSSFPLKSIIIKDPVEFDDPIYHSTQLLVLRHQLENRSPRFLNVKVLPNQLYVTTKILNWVQQARPVGTCWEFVGIDKNSKRQCVQKLMQIPGAMRALHTKLCWIILPANDDSEIHVTVAQDKINSKQFSIKLTVY” here?
The value was “not soluble”.

With “MLLEAPVYKEIFGAVTIHEVQKVIKMDTETEEVPIYTISNIPREKIYDLLGKMAVIVPMKNEKLHLVDGVLKAIPHKCPIIIVSNSKREGPNRYKLEVDLIRHFYNLTHSKIIMIHQKDPGLAKAFKEVGYTDILDENGMIRSGKGEGMLVGLLLAKAIGAEYVGFVDADNYIPGAVNEYVKDYAAGFLMSESEYTMVRLHWRHKPKVTKGTLYFKKWGRVSEITNHYLNLLVSEHTAFETTIMVTGNAGEHAMTMKLAEILPFSTGYSIEPYEIVYILERFGKWENVEEFKDVFDQGIEIFQIETLNPHFHEDKGKEHVKEMLLLSLATIYHSKLATDNLRKRILKDLRDHGILGENEEPPKPLVMRPIKEIPIKEWMDIVEGNSETLLRFEL” as the sequence, how does the “soluble on expression in E. coli” value read?
Its value is “soluble”.

For “MLLFPRRTNIAFFKTTGIFANFPLLGRTITTSPSFLTHKLSKEVTRASTSPPRPKRIVVAITGATGVALGIRLLQVLKELSVETHLVISKWGAATMKYETDWEPHDVAALATKTYSVRDVSACISSGSFQHDGMIVVPCSMKSLAAIRIGFTEDLITRAADVSIKENRKLLLVTRETPLSSIHLENMLSLCRAGVIIFPPVPAFYTRPKSLHDLLEQSVGRILDCFGIHADTFPRWEGIKSK”, which “soluble on expression in E. coli” value is on record?
The value was “soluble”.

With “MLLKALCIINALIIGIINADILSDPNYRIFRDISAIRQVVTLARPVKNVSTTELPTYYETNYNISRRVKRQACASSCAPLEKATTPAYEGLIATENFYITYSTDGSGCPIADLTCVGGDMATLDYLDQNGDIITLGDGGDDYNILEAQLKCFAFGWGAATATEVIDGNSLNCNVLTDIPVTTTTSTTSSTTTTTATSTTESTSTSTDSTTTESTTESTTESTSTSTDSTTTESTTESTTESTSTSTDSTTTESTSTSTDSTTTESTTESTTESTSTSTDSTTTSLPALPLILLQPSLPQNQLRSLPAHPLNLLQPSLPQNQLRSLPALPLILLQPSRQALPLILLQPSLPQNQLRSLPAHPRILPRPSLPALPLILLQPSLPQNQLRSLLAHPLILPRLSQQQNQLRSLPAHPPILLQPSLPQNQLRSLPALPLILLQPSLPLNQLRSLPAHPLILLQPSQQQNQLRSLPAHPLILPRPSLPLNQLRSLPAHPLILLQPSLPQNQLRSQPAHPLILPRLSQQAHPLIPPRPSRRALRLILPQLKLLLLRLTLQRQCQELHAVHLEVSGVNGLLTLLALQHVDLVHNKSTDVFALLKLIVEHARMGADVKIQNCNVGVCYFPLDSCCAGYTATVSGTLHICGPQPTTTTPAPNDETCCPLDGIWGAWGEWSVCTGTTCGNCGGSRTRTRVCASDSFCSCNGDTTESENCRLLSSWSEWTTTGTCNQTACGTCQTLTYTRTCLKTNGCFCMGSATKTDYCSRKPCATGTACCNSLTAQTVDGVSICGPVEAAEDETDPVPCTTTTPACCVLGGVWSEWSSGDACNDTCGNCGVTTLSRVCLSQDYNCACSGSTTKQSECAPAPCPFPRTSCCGARKKVIVGRTFECSSADDSDAAPSTLCAVDCCPAAGGYWSEWTTGGSCPTTCGSCSTVTQKRVCMSPSTCPCQGVSSRSVNCGITVCYFPDDSCCAGYSATVSGTQHICGPQPNYTTPYAPYDPTCTDNCCPETGIWSDWTSTPNQCRDYCGSCGNQTRTRTCTSDADGCPCQGPTTITEPCGTGVCYFPRLSCCPGYTATVEGNQHICGPLTTAVADPDKLNTCGVSCCPSAGIWGEWVSVSGCNDTCGSCGQETRKRKCLSLQYGCACTGNATDTSVCASSVCLFPRTSCCTGFKKMVNITGRTFYCGPLPVVPAFNPEQTTCCDPEKTGLWNDWGAWTTCSATCGGCGTQTRSRTCASAPYGCPCTGDLTETQSCAKQVCTTGAQCCAGKFVATGYDGAQYCQDNTPEVCTGTWTEWATLEGAVCNDTCGNCGIIPTSRYCFPSGCQCSGAYTGTQACANSVCLFPRTSCCAPYKKKIVGKTFACA” as the sequence, how does the “soluble on expression in E. coli” value read?
The value was “not soluble”.

Which “soluble on expression in E. coli” value does the source give for “MLLNMMCGRQLSAISLCLAVTFAPLFNAQADEPEVIPGDSPVAVSEQGEALPQAQATAIMAGIQPLPEGAAEKARTQIESQLPAGYKPVYLNQLQLLYAARDMQPMWENRDAVKAFQQQLAEVAIAGFQPQFNKWVELLTDPGVNGMARDVVLSDAMMGYLHFIANIPVKGTRWLYSSKPYALATPPLSVINQWQLALDKGQLPTFVAGLAPQHPQYAAMHESLLALLCDTKPWPQLTGKATLRPGQWSNDVPALREILQRTGMLDGGPKITLPGDDTPTDAVVSPSAVTVETAETKPMDKQTTSRSKPAPAVRAAYDNELVEAVKRFQAWQGLGADGAIGPATRDWLNVTPAQRAGVLALNIQRLRLLPTELSTGIMVNIPAYSLVYYQNGNQVLDSRVIVGRPDRKTPMMSSALNNVVVNPPWNVPPTLARKDILPKVRNDPGYLESHGYTVMRGWNSREAIDPWQVDWSTITASNLPFRFQQAPGPRNSLGRYKFNMPSSEAIYLHDTPNHNLFKRDTRALSSGCVRVNKASDLANMLLQDAGWNDKRISDALKQGDTRYVNIRQSIPVNLYYLTAFVGADGRTQYRTDIYNYDLPARSSSQIVSKAEQLIR” here?
The value was “soluble”.

For “MLLTGKLYKEEKQKFYDAQNGKCLICQRELNPDVQANHLDHDHELNGPKAGKVRGLLCNLCDAAEGQMKHKFNRSGLKGQGVDYLEWLENLLTYLKSDYTQNNIHPNFVGDKSKEFSRLGKEEMMAEMLQRGFEYNESDTKTQLIASFKKQLRKSLK”, which “soluble on expression in E. coli” value is on record?
The value was “soluble”.

For “MLLTPAKTTRTEDSANSTDDSSKSSNSFMRAIVSSLMVKPITSLTNTVTCRQSSHHNSSPSKITRYDLIKAAAENDLKRSKSQGREKSRRNSNRRNNEEIFVANTASEIQRTKSSI”, which “soluble on expression in E. coli” value is on record?
The value was “soluble”.

Which “soluble on expression in E. coli” value does the source give for “MLNEKAIQDVDLYFQNIHGPEGRLASNETFDIVPGLSKDGAVQYQTYQFNEAPKHLQKQVKAGRILMERFVAVASAAVNKKAPSNKEKYHYDIWKEVSNQLIPAFFTDPIKGEQNLNTTVKGVEVAKSVIQFAGNVIAGNVTGFATFLQNFGNGLSAEMNKTQANYNYLYAYSTHDLFQDTSGNVFYKPRFLIYGTHFKQEQKKIATSCASYQEVNLEFGVDTVGGTFRIEEYFSNETFKKKVDNFLDKYEGKAIDDADSYFDDIFNGVKPNKNYVYHHHHHH” here?
Its value is “soluble”.

For “MLNKRHLPSIAALQCFEAVTRHLSFTRAAEELNLTQSAVSKQVAQLEELVQHLLFQRVRRRLQLTPAGALYLAEVRKILTQIEMSTHFLRSYGGETEVLRVSTPSTFGARWLVPRLKGWRLRHPHIHLDLINEQESDDLLKGRCDVSFYFGQAAIPGAESVKLFGEELVPVCSPDSLPAEPFTDPTQLSELVLLQNAFRPQAWHEWFESQGYHTDHSYHGPRFETFYMCIRAAQVGCGVALLPRFLVEEELAEGKLVIAWDYALPSTNSAYYLSYPEHTADVPKIRVFLQWMLEQLDQPAR”, which “soluble on expression in E. coli” value is on record?
The value was “not soluble”.

For “MLNLSGLSLSCEYQPFVCPHTKHIHGYEALARFYLGQGQAIAPNLVFEQLHENSNALAAVEFQAKTFQLKHAPARQSLFVNVDPHAANGVHTQKLLDLLSSHPQLTVEIIENTCISDAELANQLFHQFKTANLNVALDDIGAPHSMLSVDLMMNVDYLKFDRHWLNLVAEPHGIALLSALIEFGKRTGKQCILEGIETEAQLQLARELNVDLVQGFLFKPWFIRPEQSERLIC”, which “soluble on expression in E. coli” value is on record?
Its value is “soluble”.

With “MLPSTSKSVEVNENSEEPIELEENVIVVTGDEIQAEIAVVDGEEVIFADDDEYIEYDPLSIANDRNAVYDIYQPHESENGTFMCKICMRTGKNTEYEDRSTFVAHRYKCHGSFNNNVMCPLGDCREVFASLYTLRRHLSQQHELPIEIHLQSFVNIGEFEKFRHLVELASGCRFMMHTKQPKYRRQVMHCSKSEHKLVLQTQKHRLPRERMLKEGSACPSVISYRVESSSGEVHTFMQLYHIGHAPDTESQNSNADNARPMDIVFPIKPACWANHPMQYVQIDVHEMPTSIYGNKIYDNILIVTCLKTRFLWAKPLFECTRTAIGRILNSIFNEYGVPEGFSTSFSPTYIRDTIKSLESVYAVEIREVWNEPLPYNCLERWVLELAQNELGTRNRWVEQLQFLVMEYNQKPIPDRMETPFERMFNRKAPNLYHNGDNQEIIHDKYISYHSELRNEEEGVENRLNTSFEPGRKVFLRKGITKPRRGNNTQYYFGYIGEVDPSNPYYPFKVHYTSSDSPWPSERNIYAWVSVFDLLPTIHEISEMSMTSKKVSIAGLLCSCMGIESSQKYDLTAMGDIARESSRCLLFRNCLCTNQMSRFCCKLVGREHCRFHSVYPENDESYAKMDAALSSFIAYNKDSSKEAEKDLQDSTPIEQILNEVGRRRLESEITVEDPEDLAPPILEPMEPTERHLDTEEEEEEPNQIPMASEHIDIEGVDEEEIMEHSVNAISEEILFEYADDKRDDGPSTPKRGRRRKSPSESAGKKKKLSNNDEFVESTVSRRSSARRTIRPKNLDDYVE” as the sequence, how does the “soluble on expression in E. coli” value read?
The value was “not soluble”.

With “MLQEIPTTTPSLREARPCVLETERLTLRKPVLADVQAIASLANDRRVVEMTRRMPFPYTRDDAARFVTALPKSSDSVFLIEAEDLEPIGLVGVDWSDRDAPELGYWLGVQHWGNGYATEAARAVIDFTFEVHGAKQMISGARVINPASRNVLEKCGFQWTGVELHRFESIGSSTPVDCFRLTRGVWSSLKKWGTTKRRC” as the sequence, how does the “soluble on expression in E. coli” value read?
The value was “not soluble”.

Which “soluble on expression in E. coli” value does the source give for “MLQLTHVTLKTRQVILQDVDFTFKKGRVYGLLAINGSGKTTLFRAISNLIPISSGNIAAPPSLFYYESIEWLDGNLSGMDYLRLIKNIWKSGLNLRDEIAYWEMSDYISLPIRKYSLGMKQRLVIAMYFLSQAKCWLMDEITNGLDEYYRQKFFDRLAQIDRQEQLVLLSSHYKEELVDVCDRVVTIHQGQIEEV” here?
The value was “not soluble”.

Which “soluble on expression in E. coli” value does the source give for “MLREIPTHLIGGPLGAGKTSLIRSLLAQKPAGERWAVLVNEFGEIGLDAALLATDVDGVAIGEVAGGCLCCVNGVPFQVGLGRLLRRARPDRLFIEPSGLGHPQALWKQLQAPPWSGVLALQPLVVVLDAAALASGQPLPEAQEQALEAAGMLLLNKSETLDATQRCAVRARLPVLPLRWSVRGHLALRDLPTSVAGEGSATTWAALPEAPAQLGTVLLAERPLRAVREQDGQFAIGWRRRCVSIGPQWTPGLEHHHHHH” here?
The value was “not soluble”.
